# From patent publication US20250320281A1
# Where a chain is given by its changes, count along the chain named.
# B1: PGT-126 (5141_B17) (antibody, V domains shown)
# VH: QPQLQESGPGLVEASETLSLTCTVSGDSTAACDYFWGWVRQPPGKGLEWIGGLSHCAGYYNTGWTYHNPSLKSRLTISLDTPKNQVFLKLNSVTAADTAIYYCARFDGEVLVYHDWPKPAWVDLWGRGTLVTVSS
# VL: QSALTQPPSASGSPGQSISISCTGTSNRFVSWYQQHPGKAPKLVIYGVNKRPSGVPDRFSGSKSGNTASLTVSGLQTDDEAVYYCSSLVGNWDVIFGGGTKLTVL
# B2: PGT-126 (antibody, V domains shown)
# VH: B1 VH
# VL: B1 VL
# B3: PGT-127 (5145_B14) (antibody, V domains shown)
# VH: QPQLQESGPGLVEASETLSLTCTVSGDSTGRCNYFWGWVRQPPGKGLEWIGSLSHCRSYYNTDWTYHNPSLKSRLTISLDTPKNQVFLRLTSVTAADTATYYCARFGGEVLVYRDWPKPAWVDLWGRGTLVVTVS
# VL: B1 VL with S19T, R28N, H36Y, G47E, N66S, T77A, A81G
# B4: 5366_P21 (PGT-136) (antibody, V domains shown)
# VH: QLQLQESGPGLVKPSETLSLTCTVSGGSMRGTDWGENDFHYGWIRQSSAKGLEWIGSIHWRGRTTHYKTSFRSRATLSIDTSNNRFSLTFSFVTAADTAVYYCARHKYHDIFRVVPVAGWFDPWGQGLLVTVSS
# VL: EIVMTQSPPTLSVSPGETATLSCRASQNVKNNLAWYQLKPGQAPRLLIFDASSRAGGIPDRFSGSGYGTDFTLTVNSVQSEDFGDYFCQQYEEWPRTFGQGTKVDIK
# B5: PGT-125 (5123_A06) (antibody, V domains shown)
# VH: QSQLQESGPRLVEASETLSLTCNVSGESTGACTYFWGWVRQAPGKGLEWIGSLSHCQSFWGSGWTFHNPSLKSRLTISLDTPKNQVFLKLTSLTAADTATYYCARFDGEVLVYNHWPKPAWVDLWGRGIPVTVSS
# VL: QSALTQPPSASGSPGQSITISCNGTATNFVSWYQQFPDKAPKLIIFGVDKRPPGVPDRFSGSRSGTTASLTVSRLQTDDEAVYYCGSLVGNWDVIFGGGTTLTVL
# B6: 5344_E16 (PGT-135) (antibody, V domains shown)
# VH: QLQMQESGPGLVKPSETLSLSCTVSGDSIRGGEWGDKDYHWGWVRHSAGKGLEWIGSIHWRGTTHYKESLRRRVSMSIDTSRNWFSLRLASVTAADTAVYFCARHRHHDVFMLVPIAGWFDVWGPGVQVTVSS
# VL: EIVMTQSPDTLSVSPGETVTLSCRASQNINKNLAWYQYKPGQSPRLVIFETYSKIAAFPARFVASGSGTEFTLTINNMQSEDVAVYYCQQYEEWPRTFGQGTKVDIK
# B7: 4869_K15 (PGT-133) (antibody, V domains shown)
# VH: QVHLQESGPGLVTPSETLSLTCTVSNGSVSGRFWSWIRQSPGRGLEWIGYFSDTDRSEYNPSLRSRLTLSVDRSKNQLSLRLKSVTAADSATYYCARAQQGKRIYGIVSFGEFFYYYYMDAWGKGTPVTVSS
# VL: SLNPLSLAPGATAKIPCGERSRGSRAVQWYQQKPGQAPTLIIYNNQDRPAGVSERFSGNPDVAIGVTATLTISRVEVGDEADYYCHYWDSRSPISWIFGGGTQLTVL
# Experiments:
# Test in all cases: cell-based or functional assay
# [1] = biological target: HIV-1 Env of isolate 92RW008 (pseudovirus) (HIV-1)
# [2] = biological target: HIV-1 Env of isolate 92TH021 (pseudovirus) (HIV-1)
# [3] = biological target: HIV-1 Env of isolate 92UG031 (pseudovirus) (HIV-1)
# [4] = biological target: HIV-1 Env of isolate 92UG037 (pseudovirus) (HIV-1)
# [5] = biological target: HIV-1 Env of isolate 92WR009 (pseudovirus) (HIV-1)
# [6] = biological target: HIV-1 Env of isolate 92WR020 (pseudovirus) (HIV-1)
# [7] = biological target: HIV-1 Env of isolate 92WR021 (pseudovirus) (HIV-1)
# [8] = biological target: HIV-1 Env of isolate 92WR024 (pseudovirus) (HIV-1)
# [9] = biological target: HIV-1 Env of isolate 92WR026 (pseudovirus) (HIV-1)
# [10] = biological target: HIV-1 Env of isolate 93UG077 (pseudovirus) (HIV-1)
# [11] = biological target: HIV-1 Env of isolate 93WR029 (pseudovirus) (HIV-1)
# [12] = biological target: HIV-1 Env of isolate 94KE105 (pseudovirus) (HIV-1)
# [13] = biological target: HIV-1 Env of isolate 94UG103 (pseudovirus) (HIV-1)
# [14] = biological target: HIV-1 Env of isolate CMU02 (pseudovirus) (HIV-1)
# [15] = biological target: HIV-1 Env of isolate MGRM-A-001 (pseudovirus) (HIV-1)
# [16] = biological target: HIV-1 Env of isolate MGRM-A-002 (pseudovirus) (HIV-1)
# [17] = biological target: HIV-1 Env of isolate MGRM-A-003 (pseudovirus) (HIV-1)
# [18] = biological target: HIV-1 Env of isolate MGRM-A-004 (pseudovirus) (HIV-1)
# [19] = biological target: HIV-1 Env of isolate MGRM-A-005 (pseudovirus) (HIV-1)
# [20] = biological target: HIV-1 Env of isolate MGRM-A-006 (pseudovirus) (HIV-1)
# [21] = biological target: HIV-1 Env of isolate MGRM-A-007 (pseudovirus) (HIV-1)
# [22] = biological target: HIV-1 Env of isolate MGRM-A-008 (pseudovirus) (HIV-1)
# [23] = biological target: HIV-1 Env of isolate MGRM-A-009 (pseudovirus) (HIV-1)
# [24] = biological target: HIV-1 Env of isolate MGRM-A-010 (pseudovirus) (HIV-1)
# [25] = biological target: HIV-1 Env of isolate MGRM-A-011 (pseudovirus) (HIV-1)
# [26] = biological target: HIV-1 Env of isolate MGRM-A-012 (pseudovirus) (HIV-1)
# [27] = biological target: HIV-1 Env of isolate MGRM-A-013 (pseudovirus) (HIV-1)
# [28] = biological target: HIV-1 Env of isolate MGRM-A-014 (pseudovirus) (HIV-1)
# [29] = biological target: HIV-1 Env of isolate MGRM-AE-001 (pseudovirus) (HIV-1)
# [30] = biological target: HIV-1 Env of isolate MGRM-AE-002 (pseudovirus) (HIV-1)
# [31] = biological target: HIV-1 Env of isolate MGRM-AE-003 (pseudovirus) (HIV-1)
# [32] = biological target: HIV-1 Env of isolate VLGCA1 (pseudovirus) (HIV-1)
# [33] = biological target: HIV-1 JR-CSF Env E466A (HIV-1 isolate JR-CSF) (UniProt P20871)
# [34] = biological target: HIV-1 Env of isolate 93IN905 (pseudovirus) (HIV-1)
# [35] = biological target: HIV-1 Env of isolate JR-CSF (pseudovirus) (HIV-1) (UniProt P20871)
# [36] = biological target: HIV-1 Env of isolate MGRM-C-026 (pseudovirus) (HIV-1)
# [37] = biological target: HIV-1 Env of isolate 92BR020 (pseudovirus) (HIV-1)
Binder,"IC50 (µg/mL), pseudovirus neutralization [1]","IC50 (µg/mL), pseudovirus neutralization [2]","IC50 (µg/mL), pseudovirus neutralization [3]","IC50 (µg/mL), pseudovirus neutralization [4]","IC50 (µg/mL), pseudovirus neutralization [5]","IC50 (µg/mL), pseudovirus neutralization [6]","IC50 (µg/mL), pseudovirus neutralization [7]","IC50 (µg/mL), pseudovirus neutralization [8]","IC50 (µg/mL), pseudovirus neutralization [9]","IC50 (µg/mL), pseudovirus neutralization [10]","IC50 (µg/mL), pseudovirus neutralization [11]","IC50 (µg/mL), pseudovirus neutralization [12]","IC50 (µg/mL), pseudovirus neutralization [13]","IC50 (µg/mL), pseudovirus neutralization [14]","IC50 (µg/mL), pseudovirus neutralization [15]","IC50 (µg/mL), pseudovirus neutralization [16]","IC50 (µg/mL), pseudovirus neutralization [17]","IC50 (µg/mL), pseudovirus neutralization [18]","IC50 (µg/mL), pseudovirus neutralization [19]","IC50 (µg/mL), pseudovirus neutralization [20]",further results
B1,0.008 µg/mL,0.197 µg/mL,> 50 µg/mL,0.011 µg/mL,> 50 µg/mL,0.006 µg/mL,0.006 µg/mL,42 µg/mL,0.008 µg/mL,0.02 µg/mL,> 50 µg/mL,0.006 µg/mL,0.008 µg/mL,> 50 µg/mL,> 50 µg/mL,0.015 µg/mL,> 50 µg/mL,> 50 µg/mL,> 50 µg/mL,> 50 µg/mL,"IC50 (µg/mL), pseudovirus neutralization [21]: > 50 µg/mL; IC50 (µg/mL), pseudovirus neutralization [22]: > 50 µg/mL; IC50 (µg/mL), pseudovirus neutralization [23]: 0.004 µg/mL; IC50 (µg/mL), pseudovirus neutralization [24]: 0.002 µg/mL; IC50 (µg/mL), pseudovirus neutralization [25]: > 50 µg/mL; IC50 (µg/mL), pseudovirus neutralization [26]: 0.097 µg/mL; IC50 (µg/mL), pseudovirus neutralization [27]: 0.006 µg/mL; IC50 (µg/mL), pseudovirus neutralization [28]: 0.01 µg/mL; IC50 (µg/mL), pseudovirus neutralization [29]: 9.68 µg/mL; IC50 (µg/mL), pseudovirus neutralization [30]: > 50 µg/mL; IC50 (µg/mL), pseudovirus neutralization [31]: > 50 µg/mL; IC50 (µg/mL), pseudovirus neutralization [32]: > 50 µg/mL"
B2,–,–,–,–,–,–,–,–,–,–,–,–,–,–,–,–,–,–,–,–,Fold IC50 increase relative to wild-type [33]: 1.4 fold
B3,0.012 µg/mL,> 50 µg/mL,> 50 µg/mL,0.014 µg/mL,> 50 µg/mL,0.01 µg/mL,0.011 µg/mL,> 50 µg/mL,0.024 µg/mL,0.055 µg/mL,> 50 µg/mL,0.023 µg/mL,0.017 µg/mL,> 50 µg/mL,> 50 µg/mL,9.42 µg/mL,> 50 µg/mL,> 50 µg/mL,> 50 µg/mL,> 50 µg/mL,"IC50 (µg/mL), pseudovirus neutralization [21]: > 50 µg/mL; IC50 (µg/mL), pseudovirus neutralization [22]: > 50 µg/mL; IC50 (µg/mL), pseudovirus neutralization [23]: 0.013 µg/mL; IC50 (µg/mL), pseudovirus neutralization [24]: 0.017 µg/mL; IC50 (µg/mL), pseudovirus neutralization [25]: > 50 µg/mL; IC50 (µg/mL), pseudovirus neutralization [26]: 0.105 µg/mL; IC50 (µg/mL), pseudovirus neutralization [27]: 0.029 µg/mL; IC50 (µg/mL), pseudovirus neutralization [28]: 0.24 µg/mL; IC50 (µg/mL), pseudovirus neutralization [29]: > 50 µg/mL; IC50 (µg/mL), pseudovirus neutralization [30]: > 50 µg/mL; IC50 (µg/mL), pseudovirus neutralization [31]: > 50 µg/mL; IC50 (µg/mL), pseudovirus neutralization [32]: > 50 µg/mL"
B4,–,–,–,–,–,–,–,–,–,–,–,–,–,–,–,–,–,–,–,–,Primary Neutralization Index (B cell culture supernatant) [34]: 5.5; Primary Neutralization Index (B cell culture supernatant) [35]: 1.1; Primary Neutralization Index (B cell culture supernatant) [36]: 6.2
B5,0.004 µg/mL,0.006 µg/mL,> 50 µg/mL,0.005 µg/mL,0.144 µg/mL,0.004 µg/mL,0.005 µg/mL,35.5 µg/mL,0.007 µg/mL,0.012 µg/mL,> 50 µg/mL,0.004 µg/mL,0.008 µg/mL,> 50 µg/mL,12.4 µg/mL,0.013 µg/mL,> 50 µg/mL,> 50 µg/mL,> 50 µg/mL,> 50 µg/mL,"IC50 (µg/mL), pseudovirus neutralization [21]: > 50 µg/mL; IC50 (µg/mL), pseudovirus neutralization [22]: > 50 µg/mL; IC50 (µg/mL), pseudovirus neutralization [23]: 0.009 µg/mL; IC50 (µg/mL), pseudovirus neutralization [24]: 0.004 µg/mL; IC50 (µg/mL), pseudovirus neutralization [25]: > 50 µg/mL; IC50 (µg/mL), pseudovirus neutralization [26]: 0.177 µg/mL; IC50 (µg/mL), pseudovirus neutralization [27]: 0.014 µg/mL; IC50 (µg/mL), pseudovirus neutralization [28]: 13.9 µg/mL; IC50 (µg/mL), pseudovirus neutralization [29]: 2.95 µg/mL; IC50 (µg/mL), pseudovirus neutralization [30]: > 50 µg/mL; IC50 (µg/mL), pseudovirus neutralization [31]: 0.092 µg/mL; IC50 (µg/mL), pseudovirus neutralization [32]: 0.078 µg/mL"
B6,–,–,–,–,–,–,–,–,–,–,–,–,–,–,–,–,–,–,–,–,Primary Neutralization Index (B cell culture supernatant) [34]: 2.3; Primary Neutralization Index (B cell culture supernatant) [35]: 1.5; Primary Neutralization Index (B cell culture supernatant) [36]: 3.6
B7,–,–,–,–,–,–,–,–,–,–,–,–,–,–,–,–,–,–,–,–,Primary Neutralization Index (B cell culture supernatant) [37]: 3.9; Primary Neutralization Index (B cell culture supernatant) [13]: 1.5; Primary Neutralization Index (B cell culture supernatant) [35]: 2.1; Primary Neutralization Index (B cell culture supernatant) [36]: 104
